The values that follow come from PMC8523659 (Scientific Reports, 2021).

Assay [1] has as its target T1, human serum albumin (Homo sapiens, UniProt P02768).
T1 construct: human serum albumin (HSA), purchased from Sigma-Aldrich Japan; dissolved in phosphate buffer and dialysed; also called HSA; source: bought: Sigma-Aldrich Japan
Kind of assay: SPR; Biacore T200; HSA immobilised on CM5 chip by amine coupling (~1000 RU); increasing concentrations of antibodies injected at 30 μl/min; PBS with 0.05% Tween-20; global fit, 1:1 Langmuir model. Conditions: both partners purified.

Assay [2] concerns the target T1, human serum albumin. Described as above. Conditions: both partners purified. The source holds these as a separate data set.

B1: single-domain VHH antibody Z18 (VHH)
VHH: QVQLVESGGGLVQAGDSLRLSCAASGRTFSGYAMGWFRQAPGKEREFVARINWSGTLTYYADSVKGRFTGSRDNAKNTVYLQMNSLKPEDTAVYYCAQRGDSGSNYDPSGYSYWGQGTQVTVSS
notes: pRA2 vector with N-terminal pelB signal peptide; also called wild-type Z18; source: E. coli BL21 (DE3), purified (Ni-NTA, SEC); not shown: hexa-histidine, C-terminal, kept
B1 showed a Kd with human serum albumin [1] of 175 nM. In the assay with human serum albumin [2], this molecule gave a Kd of 334 nM, an off-rate (koff) of 0.259 s⁻¹ and a kon of 774000 M⁻¹ s⁻¹.

B2: Z18-I56V (VHH)
VHH: QVQLVESGGGLVQAGDSLRLSCAASGRTFSGYAMGWFRQAPGKEREFVARVNWSGTLTYYADSVKGRFTGSRDNAKNTVYLQMNSLKPEDTAVYYCAQRGDSGSNYDPSGYSYWGQGTQVTVSS
notes: IMGT numbering; the methods describe vector and expression for Z18 and Z26; source: E. coli BL21 (DE3), purified (Ni-NTA, SEC)
B2: in the assay with human serum albumin [2], the affinity, expressed as Kd, was 296 nM; the koff came to 0.22 s⁻¹; the kon stood at 741000 M⁻¹ s⁻¹.

B3: Z18-S133R (VHH)
VHH: QVQLVESGGGLVQAGDSLRLSCAASGRTFSGYAMGWFRQAPGKEREFVARINWSGTLTYYADSVKGRFTGSRDNAKNTVYLQMNSLKPEDTAVYYCAQRGDSGSNYDPSGYRYWGQGTQVTVSS
notes: as for B2
Turning to B3, in the assay with human serum albumin [2], the Kd worked out at 67.2 nM, the koff turned out to be 0.078 s⁻¹ and the kon is 1.16e+06 M⁻¹ s⁻¹.

B4: Z18-R50L/G78A/S133R (VHH)
VHH: QVQLVESGGGLVQAGDSLRLSCAASGRTFSGYAMGWFRQAPGKELEFVARINWSGTLTYYADSVKGRFTASRDNAKNTVYLQMNSLKPEDTAVYYCAQRGDSGSNYDPSGYRYWGQGTQVTVSS
notes: as for B2
B4: in the assay with human serum albumin [2], the dissociation constant (Kd) amounted to 447 nM, the koff came out at 0.785 s⁻¹ and the kon amounted to 1.76e+06 M⁻¹ s⁻¹.

B5: Z18-G32D/R50L/G78A/S133R (VHH)
VHH: QVQLVESGGGLVQAGDSLRLSCAASGRTFSDYAMGWFRQAPGKELEFVARINWSGTLTYYADSVKGRFTASRDNAKNTVYLQMNSLKPEDTAVYYCAQRGDSGSNYDPSGYRYWGQGTQVTVSS
notes: as for B2
In the assay with human serum albumin [2], B5 came in with a Kd of 797 nM, a koff of 0.412 s⁻¹ and a kon of 516000 M⁻¹ s⁻¹.

B6: Z18-R50L (VHH)
VHH: QVQLVESGGGLVQAGDSLRLSCAASGRTFSGYAMGWFRQAPGKELEFVARINWSGTLTYYADSVKGRFTGSRDNAKNTVYLQMNSLKPEDTAVYYCAQRGDSGSNYDPSGYSYWGQGTQVTVSS
notes: as for B2
In the assay with human serum albumin [2], B6 showed a Kd of 412 nM, a koff of 0.284 s⁻¹ and a kon of 689000 M⁻¹ s⁻¹.

B7: Z18-G32D (VHH)
VHH: QVQLVESGGGLVQAGDSLRLSCAASGRTFSDYAMGWFRQAPGKEREFVARINWSGTLTYYADSVKGRFTGSRDNAKNTVYLQMNSLKPEDTAVYYCAQRGDSGSNYDPSGYSYWGQGTQVTVSS
notes: as for B2
In the assay with human serum albumin [2], B7 came in with a Kd of 172 nM, a dissociation rate constant (koff) of 0.12 s⁻¹ and a kon of 696000 M⁻¹ s⁻¹.

B8: Z18-Y114F (VHH)
VHH: QVQLVESGGGLVQAGDSLRLSCAASGRTFSGYAMGWFRQAPGKEREFVARINWSGTLTYYADSVKGRFTGSRDNAKNTVYLQMNSLKPEDTAVYYCAQRGDSGSNFDPSGYSYWGQGTQVTVSS
notes: as for B2
In the assay with human serum albumin [2], B8 displayed a Kd of 12.9 nM, a koff of 0.096 s⁻¹ and an on-rate constant (kon) of 7.45e+06 M⁻¹ s⁻¹.

B9: single-domain VHH antibody Z26 (VHH)
VHH: QLQLVESGGGLVQAGDSLRLSCAASGRTFSDYAMGWFRQAPGKELEFVARVNWSGLLTYYADSVKGRFTASRDNAKSTVYLQMNSLKPEDTAVYYCAQRGDSGSNFDPSGYRYWGQGTQVTVSS
notes: differs from Z18 at nine residues; pRA2 vector with N-terminal pelB signal peptide; also called wild-type Z26; source: E. coli BL21 (DE3), purified (Ni-NTA, SEC); not shown: hexa-histidine, C-terminal, kept
In the assay with human serum albumin [2], B9 registered a Kd of 0.54 nM, a koff of 0.000816 s⁻¹ and a kon of 1.51e+06 M⁻¹ s⁻¹.

B10: Z18-N85S (VHH)
VHH: QVQLVESGGGLVQAGDSLRLSCAASGRTFSGYAMGWFRQAPGKEREFVARINWSGTLTYYADSVKGRFTGSRDNAKSTVYLQMNSLKPEDTAVYYCAQRGDSGSNYDPSGYSYWGQGTQVTVSS
notes: as for B2
In the assay with human serum albumin [2], B10 registered a dissociation constant Kd of 344 nM, a koff of 0.238 s⁻¹ and a kon of 692000 M⁻¹ s⁻¹.

B11: Z18-V2L (VHH)
VHH: QLQLVESGGGLVQAGDSLRLSCAASGRTFSGYAMGWFRQAPGKEREFVARINWSGTLTYYADSVKGRFTGSRDNAKNTVYLQMNSLKPEDTAVYYCAQRGDSGSNYDPSGYSYWGQGTQVTVSS
notes: as for B2
In the assay with human serum albumin [2], B11 returned a Kd of 366 nM, a koff of 0.276 s⁻¹ and a kon of 754000 M⁻¹ s⁻¹.

B12: Z18-G78A (VHH)
VHH: QVQLVESGGGLVQAGDSLRLSCAASGRTFSGYAMGWFRQAPGKEREFVARINWSGTLTYYADSVKGRFTASRDNAKNTVYLQMNSLKPEDTAVYYCAQRGDSGSNYDPSGYSYWGQGTQVTVSS
notes: as for B2
In the case of B12, in the assay with human serum albumin [2], the equilibrium dissociation constant (Kd) stood at 7110 nM, the koff turned out to be 1.1 s⁻¹ and the kon came out at 155000 M⁻¹ s⁻¹.

B13: Z18-T61L (VHH)
VHH: QVQLVESGGGLVQAGDSLRLSCAASGRTFSGYAMGWFRQAPGKEREFVARINWSGLLTYYADSVKGRFTGSRDNAKNTVYLQMNSLKPEDTAVYYCAQRGDSGSNYDPSGYSYWGQGTQVTVSS
notes: as for B2
In the assay with human serum albumin [2], B13 came in with a Kd of 8.63 nM, a koff of 0.037 s⁻¹ and a kon of 4.33e+06 M⁻¹ s⁻¹.

By Kd is commonly meant the concentration at which binding is half-saturated. Low values mean higher affinity, high ones lower affinity. As a reminder, the koff is a measure of how fast the partners let go of each other. Low values mean slow dissociation, high ones fast dissociation. What is called kon is the second-order rate constant of association. Lower therefore signals slow association.
